In general, stoichiometry N refers to a count of units in the complex or per binding partner.

Stoichiometry N data for three substances are collected here from publication PMC12171399.

The target of assay [1] is secreted form of VEGF-A-HisTag expressed in Expi293 cells (mouse) (UniProt Q00731). Nature of the assay: SDS-PAGE; VEGF-A-HisTag from Expi293 culture media, purified on a heparin affinity column.
The target of assay [2] is non-tagged mature mouse VEGF-A (188 amino acids form), refolded from TAPS-VEGF-A (mouse). Nature of the assay: SDS-PAGE under reducing and non-reducing conditions; purified protein; disulfide-linked homodimer told from monomer by comparing migration under reducing or non-reducing conditions; 5%-20% gradient gel; refolded samples after cation-exchange chromatography.
Assay [3] concerns the target VEGF-A-HisTag refolded from inclusion bodies of BL21(DE3) (mouse). Described as above.

In assay [1], “secreted form of VEGF-A-HisTag expressed in Expi293 cells (from UniProt Q00731 1-392) (ligand)” displayed a stoichiometry N of 2.

For the substance “non-tagged mature mouse VEGF-A (188 amino acids form), refolded from TAPS-VEGF-A (ligand)”, in assay [2], the stoichiometry N is 2.

In the case of “VEGF-A-HisTag refolded from inclusion bodies of BL21(DE3) (ligand)”, the stoichiometry N in assay [3] came to 2.
